Laboratory results from the supplement of paper PMC12042874.
± gives the uncertainty stated by the source.

assay: amyloid nucleation score (Sup35N fusion, yeast selection) (log enrichment); library NNK3; higher = more nucleation; inactive = no reads after selection
In short: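 Sup35N fusions to peptides of 20 random codons were expressed in psi-negative yeast, induced 24 hours with 100 μM copper sulfate, and grown 7 days at 30°C on medium lacking adenine and uracil. Input and output plasmid inserts were sequenced by Illumina. The nucleation score is the DiMSum log enrichment of output over input reads, centred on the mode score of non-aggregating sequences. Sequences with under 100 input reads were excluded.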

Amyloid nucleation score, -0.288 ± 0.45:
LWIDLWFILYWPGSIDCGEC

Amyloid nucleation score, 2.02 ± 0.1:
SRYTLNAFYMWG

Amyloid nucleation score, 1.95 ± 0.069:
LANSKLDCLSVHLFEHNCLA

Amyloid nucleation score, 0.529 ± 0.46:
CISTVIEKMLVIYEKNRFQH

Amyloid nucleation score, 0.422 ± 0.21:
EPGDRQARKSFRLSFWAQEV

Amyloid nucleation score, 1.02 ± 0.15:
MQWNWEGSLYMKIMSGMCHP

Amyloid nucleation score, 1.19 ± 0.11:
IGIINMSLN

Amyloid nucleation score, 0.692 ± 0.2:
NLRHCGCSALGTMTDVNVRG

Amyloid nucleation score, 2.14 ± 0.07:
PSCFLPFNCPITLVYTCSLF

Amyloid nucleation score, 1.27 ± 0.12:
CLALSGIIIFELKAYLGSWC

Amyloid nucleation score, 2.59 ± 0.065:
RFYVYIINHHAPVYWVSRYS

Amyloid nucleation score, 1.34 ± 0.081:
RLICLMGSLW

Amyloid nucleation score, 0.123 ± 0.27:
DVYISKDIRCCYLLKTFLPY

Amyloid nucleation score, -1.34 ± 2.5:
FAFLWCLDWLNRKRIMSRVE

Amyloid nucleation score, -0.248 ± 0.34:
GLLFCSL

Amyloid nucleation score, 0.561 ± 0.37:
SLGFCKVGALLRWFCSQCQG

Amyloid nucleation score, -0.03 ± 0.73:
QNRFDLPGMSQRSTHDRAPS

Amyloid nucleation score, 1 ± 0.15:
LRGGMIEPNTRRYS

Amyloid nucleation score, 0.801 ± 0.19:
VNMISCVYFDMSIERTDEMI

Amyloid nucleation score, 0.517 ± 0.23:
WYACRIQ

Amyloid nucleation score, 0.203 ± 0.33:
TTMVIRNAMCNILNVVRKRR

Amyloid nucleation score, inactive:
CISLSRL
REREF
AIYAYTFAKRPSCEQATRVS
ARPMIPMCLLQRAMYPLYSP
IELERMNGL
MMVVNRGDHQDGGEAYEVV
KNCIGRFW
VGKYAGCCLKRPSLDAMGHV
PYYNRGFCGYGFSQVMEVL
TEGKAVSEV
INLPDASS
YVCGQSG
YAFLELFNFVLNLDLGVGYL
QQCCTLVCWRRMI
IQRVGTKGDVISTFCNRQQL
VIIYI
NCICWASYQTGLE
WWMYSALGMYTDHEFACDVA
RNTDLL
ELVVLYLYRRASSGWS
PVDIDPLGSFVD
LSLVQGR
SCVMSWIFWNFVWCYSVRCV
CHAIASVVSEYNGPLVVTVI
DAPVVTVRAGNAGNHSMIPW
FKAMLD
SLPNA
LCLSTIV
NHQIVRDDRCYKLLIQAVRM
FFNKREKDVFSNHRQYGYWN
AIKVGASIINFLWLAHVWCP
FHIGLSITVT
SRLMWSGNLWRILVWCFTSN
IVLWVFVLTITLN
FYSWCR
QYFRLLTLISRPFKTHRGVG
GHLSIHREGFNLVSHLCANF
LVYLAF
GSEMVAGHS
CCIKGHFPSSFGSWAKYLHV
NPGRYRGGRTAHIFPERDIR
SMDNFL
LFNDLVAHKGPDYITYATCV
INRHGCIGVHTLSLMLRPCV
KLGIGFPWCGRLHIEHSKMR
VIPFPFNLGDYCRMFDPRRS
KFNSRNRS
NDHPVNSWPVGYSADINQVL
PHTWGGR
ECYTSCVMIYIIHCYKNLRL
VVYDPVICDGWALDGGVGAR
TVYIAYTCVAVRSHSEHLFD
YQNGLARWTWKYRNVINVLS
CSPSFDVYPMV
FDDATEKFIS
IWGMIFIGKSSYDISDYVCH
IEVYAGTF
WYTIRDYRAFLSVM
YLVFFA
MMCPLKLWYHVWFSGYTL
SADITSTLGRYAFYF
KVLQPANVLRLTGFVSVRGV
RKVKILWNDTLTFRT
FTRNCSKWIVG
GHFLISIKKLL
SFLSWMVFANFKRVHPGWVP
NPSQSRSASWQHSYHRISGL
LCKFYRYRTLRHSEEKPCHH
VPGFGVLACCGQVLLFSHLF
LSLVDEFQSPLLQLLFVQVA
GSNVNEVKNAQYTSRVGVCR
SRFYETDYSYFSIKSYDAGG
FWNVCLDCISR
YASYFSWEDCHG
KLVVNSKPYMNYVSVDEIIM
CLACFI
FGTDDEDVKCNVMTALCRIW
IANLRAFILFMCDMKSTNPK
TPKWILMERNTSRGWATSA
HRRIPL
RGAVLLKNWL
RYDLCLDLALLRGNWWDLYL
FISINTPPCLCMS
VWETKMTLLINSKNYFVGFW
INMRFIQKRMFVYLNYSWYA
ADSLRCVSWFSD
LRRQSVMWDKSYAGTWILES
HMCCKYVPRNKSGSLVFKRG
EICWKLIGRMRC
YGNFF
GVHIMRGGGIYVVGGLESWA
LVKLCIFGLRDGYTVFEYMG
NIRIDMMWSLSCHKLG
FGVVDYARRSWGYGSCGGHV
YPKRMCDRHS
LSISYSIGGDGDMIGNAACV
INGSGSAIYGRITRGLNGDS
LVILMSSHIEFLGTYFNEKL
GFIVGLLARSTIFTTNYMLK
ILRLTCLIAKHTRAVNMDLQ
NRIVQAFPSIGGFATNVCLC
TMSGWFNGCVYGVSAIHSSD
GCGRCFL
LGGCPSNDGSFYVSSSLLHV
APRLFINY
VFVDYCNKYGEFVSGTAQVS
LALAVGQRDRVLFVKVPVLR
VYYKVKEHVGWVFVSVVCIV
SFLGCFHGDY
IVKNDGNGHLLYTLCVFRFW
SFQAWVYFVSRLFLECFSSR
TSLVFLLGLSMFM
LEGQMTVRRDFTRFDW
ARFLYAVVLRWFIMEYRAGT
GLNDHSLI
IITYKVS
TEYCIYFLEV
AEWWSTVCH
SNSFVDFRHSDWF
SLGAMYVRCDKSWR
IEFFEYVCVMFFCC
LRMVRSYVLSNGCL
RDISIFRFRYTRRSWWLSFG
SVFFYKYQALIRNEGEK
SQFLLYTVQQFRWTACHVAF

Amyloid nucleation score, -0.464 ± 0.36:
EVTSYVVFSFLIFTSMFHCK

Amyloid nucleation score, 2.57 ± 0.082:
YQYPVVDKRMYIFTTMFYFT

Amyloid nucleation score, 0.035 ± 0.48:
IFIGVGNVGEVLVIYSWQRN

Amyloid nucleation score, 0.394 ± 0.23:
RRIPITFIACNCTRTCWQMI

Amyloid nucleation score, -0.005 ± 0.88:
NYRPRKKVFGLR

Amyloid nucleation score, 2.51 ± 0.071:
LVFMQRNIENISCCVTLYYQ

Amyloid nucleation score, 0.92 ± 0.16:
RTRFQITCQEETTCPRFS

Amyloid nucleation score, -0.582 ± 0.95:
LRPVRYRLCVRFNWMCVRCK

Amyloid nucleation score, 0.597 ± 0.51:
VSMRSTYTFG

Amyloid nucleation score, 1.49 ± 0.11:
NMIIVDFDNLLYNMNYHLAG

Amyloid nucleation score, 2.21 ± 0.074:
HLMFCNHMALCVFFLQQEF

Amyloid nucleation score, -0.074 ± 0.64:
CFAYCFLSLFEMRIWTN

Amyloid nucleation score, 1.59 ± 0.081:
HIFFFSPKSVVHVIASRGCL

Amyloid nucleation score, 1.66 ± 0.084:
RTTVVYTLNLSGTNRRPCYN

Amyloid nucleation score, 0.833 ± 0.085:
VNTSINVYRYPFRCRSYRMH

Amyloid nucleation score, 2.12 ± 0.068:
IFVNSTVLFLMHVCCLSVIS
